Laboratory results from publication PMC5650626, “Deletion of MtrA Inhibits Cellular Development of Streptomyces coelicolor and Alters Expression of Developmental Regulatory Genes”.

Columns and labels:
[1] = molecular target: T1, MtrA (MtrASCO) (Streptomyces coelicolor M145) (UniProt Q9KYW8); experiment: EMSA; settings: EMSA: 20 mM Tris-HCl pH 8.0, 2 mM EDTA, 20 mM KCl, 0.5 mM DTT, 4% Ficoll-400, 2 ug poly(dI-dC), 50 fmol probe, 20 ul, room temperature 15 min; footprinting …
T1 sequence: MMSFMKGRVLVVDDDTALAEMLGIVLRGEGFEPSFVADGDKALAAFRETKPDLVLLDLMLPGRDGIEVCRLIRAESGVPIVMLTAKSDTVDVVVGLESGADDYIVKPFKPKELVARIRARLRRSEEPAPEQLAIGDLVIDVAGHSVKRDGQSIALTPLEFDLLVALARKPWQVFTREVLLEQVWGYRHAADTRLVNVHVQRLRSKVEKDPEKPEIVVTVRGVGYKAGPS

MtrA (MtrASCO) [2] = molecular target: T2, MtrA (MtrASCO) (Streptomyces coelicolor M145, UniProt Q9KYW8 1-229); experiment: EMSA; stronger than whiI-b; 2.1-6.3 ug MtrA; EMSA: 20 mM Tris-HCl pH 8.0, 2 mM EDTA, 20 mM KCl, 0.5 mM DTT, 4% Ficoll-400, 2 ug poly(dI-dC), 50 fmol probe, 20 ul, room temperature 15 min; footprinting 25 C, 30 min, 400 ng probe, 40 ul, poly(dI-dC); settings: protein: recombinant; tags: His-tag (pET28a NdeI/HindIII; native stop codon in primer); chain copies: 2; label: biotin-11-UTP 3' end; blunt
T2 sequence: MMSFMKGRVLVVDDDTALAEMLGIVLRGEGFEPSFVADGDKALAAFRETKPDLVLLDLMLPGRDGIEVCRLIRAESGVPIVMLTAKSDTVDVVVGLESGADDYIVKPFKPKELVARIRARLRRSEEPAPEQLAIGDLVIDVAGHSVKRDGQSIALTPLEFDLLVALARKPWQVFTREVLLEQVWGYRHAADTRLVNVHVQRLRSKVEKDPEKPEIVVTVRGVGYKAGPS

MtrA (MtrASCO) [3] = molecular target: T2, MtrA (MtrASCO); experiment: EMSA; lower affinity than whiI-a; 2.1-6.3 ug MtrA; EMSA: 20 mM Tris-HCl pH 8.0, 2 mM EDTA, 20 mM KCl, 0.5 mM DTT, 4% Ficoll-400, 2 ug poly(dI-dC), 50 fmol probe, 20 ul, room temperature 15 min; footprinting 25 C, 30 min, 400 ng probe, 40 ul, poly(dI-dC); settings: protein: recombinant; tags: His-tag (pET28a NdeI/HindIII; native stop codon in primer); chain copies: 2; label: biotin-11-UTP 3' end; blunt
MtrA (MtrASCO) [4] = molecular target: T2, MtrA (MtrASCO); experiment: EMSA; almost complete shift at 1.6 ug; EMSA: 20 mM Tris-HCl pH 8.0, 2 mM EDTA, 20 mM KCl, 0.5 mM DTT, 4% Ficoll-400, 2 ug poly(dI-dC), 50 fmol probe, 20 ul, room temperature 15 min; footprinting 25 C, 30 min, 400 ng probe, 40 ul, poly(dI-dC); settings: protein: recombinant; tags: His-tag (pET28a NdeI/HindIII; native stop codon in primer); chain copies: 2; label: biotin-11-UTP 3' end; blunt
MtrA (MtrASCO) [5] = molecular target: T2, MtrA (MtrASCO); experiment: EMSA; shift increases with MtrA; EMSA: 20 mM Tris-HCl pH 8.0, 2 mM EDTA, 20 mM KCl, 0.5 mM DTT, 4% Ficoll-400, 2 ug poly(dI-dC), 50 fmol probe, 20 ul, room temperature 15 min; footprinting 25 C, 30 min, 400 ng probe, 40 ul, poly(dI-dC); settings: protein: recombinant; tags: His-tag (pET28a NdeI/HindIII; native stop codon in primer); chain copies: 2; label: biotin-11-UTP 3' end; blunt
MtrA (MtrASCO) [6] = molecular target: T2, MtrA (MtrASCO); experiment: EMSA; complete shift at lowest amount (1.6 ug); EMSA: 20 mM Tris-HCl pH 8.0, 2 mM EDTA, 20 mM KCl, 0.5 mM DTT, 4% Ficoll-400, 2 ug poly(dI-dC), 50 fmol probe, 20 ul, room temperature 15 min; footprinting 25 C, 30 min, 400 ng probe, 40 ul, poly(dI-dC); settings: protein: recombinant; tags: His-tag (pET28a NdeI/HindIII; native stop codon in primer); chain copies: 2; label: biotin-11-UTP 3' end; blunt

GGACATATGGCTCCCCGGACAAGGTGTCGACGCGGCAGGCTGTGTTGTCGGCCGCGCGGCTGGTAACTCACTGTGAGGTTACGCAGCGTTACTCTGCTGCGTCAAGCCGAATGGTCCGCACCGACTCTTCCGTGGTATTCGCCATCCATTACTCCGTGCGGGTGATCGATGTGGGGCAGAGGAGTGACGGGGGAGTGTCAGGGGGGTCATCGGAGAGGTTCTGTGAGCCTGCTACCGTAGGTGGCGCATATCCGACGTCCTTTAAGGTCCGTCCCGTGAGGC (double strand) [bldD upstream PCR probe (282 bp)]
binding [1]: binds

CGTCAGGGATGCGTCAGGAGTGCGTCAGGGGTCCGAGAGGGGTCCGACCGAGGTGCGCCGGGGCCTTCATGCATGCCCCGTACGGCCCGTCGGGGCCCGCCACGGCGCAGGCTTCACCCGCTTAACCCTCCTGGTTCGCGGTCCCCGCGGGCACGGCCCACGATCGTGCTTACGCGACCGTCGCACCCCGCCGGCCTGGCGGGCGCCGCCGACGATCGCCCCAGTCCACGAGGATGACCGGAGAAGAGGTGGGCCGGATGACGGTCT (double strand) [whiE-ORF1 upstream PCR probe (267 bp)]
binding [1]: no binding

GTCGTCCCCGATGGCAGGTGTAGGCCCCGCGGGTGCGTTCAGTGCCGTCACGGTTGATGCGGCAGCGGCCCGGCGTCGCGAACTTCCTTGACGTCGTGTGCCGTCGGCCGGCCGTCGCCGGCCGTGAGCCAGGGTTCTCCCGGGGCCGTGCTGCCCCTCCGTCTTTGTTCCCCTCGCGCGCTGCGAAAGACGTACGCCGTGCGAAGGCCGTCGGCTCCCGCACTCCCGACGACCTCCAACCTGTGAAATGGACGAATCATGACGA (double strand) [bldKA upstream PCR probe (265 bp)]
binding [1]: no binding

CACCAGCCGTCGTTCATCGTTCCGGGCAGGGGGTCCGCACGTCCGGAGGAGGTTCCGTCACTTTGTCGACACGGCCACTTTCGGCCTCGTATCGACAAAGTGCGGAACCGTTCGATCTTCGAATGATCGACAGTGTGTCCGAATTGCTCGGATTGTTACTCACCAGATCGTGATCATTCTCTAAAGGCGGACGCGTTCGGTGCCGAAGACGACTGTGACCTTGAAAGCACGGTTCGTCCCGGCTTAAACCCCATGAGCCGGCCCCGTCCCCGCACCCCAGGAGGCCTGGTGTC (double strand) [whiI upstream PCR probe (293 bp)]
binding [1]: binds

B1: whiI-a 59bp WT (SCO6029-a) (dsDNA)
DNA 1: GATCTGGTGAGTAACAATCCGAGCAATTCGGACACACTGTCGATCATTCGAAGATCGAA
DNA 2: TTCGATCTTCGAATGATCGACAGTGTGTCCGAATTGCTCGGATTGTTACTCACCAGATC
binding result (MtrA (MtrASCO) [2]): binds

B2: whiI-b 59bp WT (SCO6029-b) (dsDNA)
DNA 1: TCACAGTCGTCTTCGGCACCGAACGCGTCCGCCTTTAGAGAATGATCACGATCTGGTGA
DNA 2: TCACCAGATCGTGATCATTCTCTAAAGGCGGACGCGTTCGGTGCCGAAGACGACTGTGA
binding result (MtrA (MtrASCO) [3]): binds

B3: SCO1189 59bp (dsDNA)
DNA 1: CTCCCGCCGACCTCACGTGCCGGTTACAAATCGCTCAACCTCTGGTTGCGAAGCGGTGA
DNA 2: TCACCGCTTCGCAACCAGAGGTTGAGCGATTTGTAACCGGCACGTGAGGTCGGCGGGAG
binding result (MtrA (MtrASCO) [4]): binds

B4: SCO3485 59bp (dsDNA)
DNA 1: ATGCCCGTTGTCGACCAGGCGTGTCACCGTATGGTAAACCGGTTATCTGTGACGCGCGG
DNA 2: CCGCGCGTCACAGATAACCGGTTTACCATACGGTGACACGCCTGGTCGACAACGGGCAT
binding result (MtrA (MtrASCO) [4]): binds

B5: SCO1568 59bp (dsDNA)
DNA 1: CTCTGGGTGTGCGTGACTCACCTCACGGGGCGGTCACGTTCCTGCGGGGCGGTGGTCTG
DNA 2: CAGACCACCGCCCCGCAGGAACGTGACCGCCCCGTGAGGTGAGTCACGCACACCCAGAG
binding result (MtrA (MtrASCO) [5]): binds

B6: SCO2136 59bp (dsDNA)
DNA 1: TTCCGCCACAACTCACCTGCAGTGACGTCTTCCTGACACCACGTTGCGTGACGGTTCCG
DNA 2: CGGAACCGTCACGCAACGTGGTGTCAGGAAGACGTCACTGCAGGTGAGTTGTGGCGGAA
binding result (MtrA (MtrASCO) [5]): binds

B7: SCO2210 59bp (dsDNA)
DNA 1: GCCGCGCCACAACGAGCCCGGGTAACACGGGGTTCACCTACGGGCAACGGTCGGGAAAT
DNA 2: ATTTCCCGACCGTTGCCCGTAGGTGAACCCCGTGTTACCCGGGCTCGTTGTGGCGCGGC
binding result (MtrA (MtrASCO) [5]): binds

B8: SCO3561 59bp (dsDNA)
DNA 1: AATTACTCTCTATTTACTCGCTGTAATCGAACGGATACTCAGGAGACGGGAACATGTCA
DNA 2: TGACATGTTCCCGTCTCCTGAGTATCCGTTCGATTACAGCGAGTAAATAGAGAGTAATT
binding result (MtrA (MtrASCO) [5]): binds

B9: SCO3863 59bp (dsDNA)
DNA 1: CGCCCGACTATACACACCGGCCGATACCGATCGGTGACCTGCGTCGGCGGTCAACTGCC
DNA 2: GGCAGTTGACCGCCGACGCAGGTCACCGATCGGTATCGGCCGGTGTGTATAGTCGGGCG
binding result (MtrA (MtrASCO) [5]): binds

B10: SCO5583 59bp (dsDNA)
DNA 1: ACGACGACCGGCCCCGGCCGTTCACCCACGCGTAACACGCACCGTGCCTTCGTCACGGC
DNA 2: GCCGTGACGAAGGCACGGTGCGTGTTACGCGTGGGTGAACGGCCGGGGCCGGTCGTCGT
binding result (MtrA (MtrASCO) [5]): binds

B11: SCO7434 59bp (dsDNA)
DNA 1: ATACCGGTCCGGTGTGTCTGCGTGACGGAGCGGTTACGGACAGCATCATGAGCTCTGCA
DNA 2: TGCAGAGCTCATGATGCTGTCCGTAACCGCTCCGTCACGCAGACACACCGGACCGGTAT
binding result (MtrA (MtrASCO) [5]): binds

B12: SCO7458 59bp (dsDNA)
DNA 1: GGGCGACCGGTGGTCACCTGGTGTAACAGTCTTCTTATGATCTGTAGACGAAATGATCG
DNA 2: CGATCATTTCGTCTACAGATCATAAGAAGACTGTTACACCAGGTGACCACCGGTCGCCC
binding result (MtrA (MtrASCO) [5]): binds

B13: SCO1489 (bldD) 59bp WT (dsDNA)
DNA 1: TGACGCAGCAGAGTAACGCTGCGTAACCTCACAGTGAGTTACCAGCCGCGCGGCCGACA
DNA 2: TGTCGGCCGCGCGGCTGGTAACTCACTGTGAGGTTACGCAGCGTTACTCTGCTGCGTCA
binding result (MtrA (MtrASCO) [6]): binds
